A short description of the series: yeast display, Sf9 membrane polyspecificity reagent, FACS + sequencing; frameworks hold sequencing errors. In short, it runs like this:
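Nanobodies from a synthetic yeast display library (Saccharomyces cerevisiae BJ5465), induced 36–48 hours with galactose, were stained 1 hour at 4 °C with 10% biotinylated, detergent-solubilized Sf9 membrane reagent, enriched on streptavidin microbeads, then FACS-sorted. Anti-HA (expression) and streptavidin (reagent binding) fluorescence set low and high (top ~1%) gates. Polyreactivity labels come from the gate of origin. Genes were colony-PCR amplified, MiSeq 2 × 250 sequenced and filtered by CDR length.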
On to “QVQLVESGGGLVQAGGSLRLSCADSGSIFAGNAMGWYRQAPGKERELVAAISRRGGSTYYADSVKGRFTISRDNAKNTVYLQMNSLKPEDTAVYYCNALLRYAYHAAYGYWGQGTQVTVSS”, for which the “polyreactivity (PSR sort gate)” value is “high polyreactivity”.
For “QVQLVESGGGLVQAGGSLRLSCADSGSIFAYNGMGWKRQAPGKERELVAAISRGGRTSYADSVKGRFTISRDNAKNTVYLQMNSVKPEDTAVYYCNAVYRWFSSAYVYSSGYNGDYWGQGTQVTVSS”, the “polyreactivity (PSR sort gate)” value was “high polyreactivity”.
Next, “QVQLVESGGGLVQAGGSLRLSCADSGSIFGYYAMGRYRQAPGKERELVAAISDGGTITYYADSVKGRFTISRDNAKNTVYLQMNSLKPEDTAVYYCAARSPPRYYEHSYYYWGQGTQETVSS”: “high polyreactivity”; “QVQLVESGGGLVQAGGSLRLSCADSGSIFQPYAMGWYRQAPGKERELVAAINGRGGSTHYADSVKGRFTISRDNEKNSVYLQMNSLKPEDTAVYDCAARYYRDYRWYTYAYDYWGQGTQVTVSS”: “high polyreactivity”.
Regarding “QVQLVESGGGLVQAGGSLRLSCADSGSIFWGYAMGWYRQAPGKERELVAVISRGGSTYYADSVKGRFTISRDNAKNTVYLQMNSLKPEDTAVYYCAASSSWFYSPEYDYWGQGTQVSVSS”, the “polyreactivity (PSR sort gate)” value was “low polyreactivity”.
Under “QVQLVESGGGLVQAGGSLRLSCADSGSIIGINAMGWYRQAPGKERELVAANNGGGSTYYADSVKGRFTISRDNAKNSVYLQMNSLKPEDTAVYYCAAEWGTSWYDYWGQGTQVTVSS” stands “low polyreactivity”.
Under “QVQLVESGGGLVQAGGSLRLSCADSGSISYYAIGWYRQAPRKESELVAAISSSGGSTYYADSVNGRFTISRDNAKNTVYLQMNSLKPEDTAVYYCAAAVTGCYASDYWGQGTQVTVSS” stands “high polyreactivity”; under “QVQLVESGGGLVQAGGSLRLSCADSGSTFPWYAMGWYRQAHGKERELVADISFSGGSTYYSDSVKGRFTISRDNAKNTVYLQMNSLKPEDTAVYYCASETSFLRHAYQSDSFDYWGQGTQVTVSS”, “high polyreactivity”; under “QVQLVESGGGLVQAGGSLRLSCADSGSTFRYNAMGWYREAPGKERELVADIRRSGGSTYYADSVKGRFTISRDKAKNTVYLQMNSLKPEDTAVYYCNAAVSRLYYHSYSYRSYYYWGQGTQVTVSS”, “high polyreactivity”.
On to “QVQLVESGGGLVQAGGSLRLSCADSGSTFSYYAMGWYRQAPGKEGELVAAISARGGSTNYADSVKGRFTISRDNAKNTVYLQMNSLKPEDTAVYYCAAYDPLVDYFRYAYSDDYWGQGTQVTVSS”, for which the “polyreactivity (PSR sort gate)” value is recorded as “high polyreactivity”.
For “QVQLVESGGGLVQAGGSLRLSCADSGSTFVSNTMGWYRQAPGKERELVAAISSSGGSTYYADSVKGRFSISRDNAKNTVYLQMNSLKPEDTAVYYCAAYYRAYRRDYYWGQGTQVTVSS”, the “polyreactivity (PSR sort gate)” value is given as “high polyreactivity”.
As to “QVQLVESGGGLVQAGGSLRLSCADSGSTFWYDMGWYRQAPGKERELVAAISDAGSTYYADSVKGRFTISRDNAKITVYLQMNSLKPEDTGFYFCAADGVYWRWYLYTFWMDYWGQGTQVTVSS”, the “polyreactivity (PSR sort gate)” value is on record as “low polyreactivity”.
Consider “QVQLVESGGGLVQAGGSLRLSCADSGYTFGTYAMGWYIKAPGKERELVAAISNSGGSTYYADSVKGRFTISRDNAKNTVYLQMNSLKPEDTAVYYFNTDGLVRNGPFYSWGLGTQVTVSS”, for which the “polyreactivity (PSR sort gate)” value is “low polyreactivity”.
Regarding “QVQLVESGGGLVQAGGSLRLSCADSGYTIILYVMGWYRQAPGKERELVAVITLSGGITYYADSVKGRFTISRDNAKNTVYLQMNSLKPEDTAVYYCAVDVYHNRYFTLTSWYHYDSWGQGTQVTVSS”, the “polyreactivity (PSR sort gate)” value is given as “low polyreactivity”.
Turning to “QVQLVESGGGLVQAGGSLRLSCADSRSTFYIYAMGWYRQAPGKERELVAAIRRSGGSTYYADSVKGRFTISRDNAKNTVYLQMISLKPEDTAVYYCATRYLWRPRPYDYWGQGTQVTVSS”, the “polyreactivity (PSR sort gate)” value is “high polyreactivity”.
Under “QVQLVESGGGLVQAGGSLRLSCADYGIIFSPYAMGWYRQAPGKERELVAAISYSGGSTYYADSVKGRFTISRDNAKNTVKLQMNSLKPEDTAVYYCAVVYSYYLAVLGYWDYDYWGQGTQVTVSS” stands “low polyreactivity”; under “QVQLVESGGGLVQAGGSLRLSCAGSGFIITQYPMGWYRQAPGKERELVAAISGNGGRTYYADSVKGRFTISRDNAKNTDYLQMNSLKPEDTAVYYCAVTRPGRRYPFGYDYWGQGTQVTVSS”, “low polyreactivity”; under “QVQLVESGGGLVQAGGSLRLSCAGSGFTFGIYAMGSDRQAPGKERELVAAISSSGGSTYYADSVKGRFTISRDNAKNTVYLQMNSLKPEDTAVYYCAAVNSRRRYWYDYWGQGTQVTVSS”, “high polyreactivity”.
Under “QVQLVESGGGLVQAGGSLRLSCAGSGIILYWNTMGWYRHAPGKERELVAAITWSVGRTYYADSVKGRFTISRDNAKNTVYLQMNSLKPEDTAVYYCATTFQYYWFSLYDYWGQGTQVTVSS” stands “low polyreactivity”; under “QVQLVESGGGLVQAGGSLRLSCAGSGRIFTQYAMGWYGQAPGKERELVAAINASDGSTYADSVKGRFTISRDNAKNTVYLQMNSLKPEDTAVYYCNVTGGPYDFTRWSEFDHWGQGTQVTVSS”, “low polyreactivity”; under “QVQLVESGGGLVQAGGSLRLSCAGSGRIFVSYAMGWYRQAPGKERELVAAITRSGGSTYYADSVKGRFTISRDNAKNTVYLQMNSLKPEDTAVYYCNAYIPRTRYRSGYWGQGTQVTVSS”, “high polyreactivity”.
For the sequence “QVQLVESGGGLVQAGGSLRLSCAGSGRTFGRYAMGGYRQAPGKERELVAAIRSGGSTYYADSVKGRFTISRDNAKNTVYFQMNSLKPEDTAVYYCAADSTSLYNYWGQGTQVTVLS”, the “polyreactivity (PSR sort gate)” value was “low polyreactivity”.
Take “QVQLVESGGGLVQAGGSLRLSCAGSGSIFKRYAMGWYRQAPGKERELVAAITSRGGSTYYADSVKGRFTISRDTAKNTVYLQLNSLKPEDTAVYYCAATRSSTNGYDYWGQGTQVTVSS”: the “polyreactivity (PSR sort gate)” value is listed as “high polyreactivity”.
For the sequence “QVQLVESGGGLVQAGGSLRLSCAGSGSTFGGYAMGWYRQAPGKEWELVAAINSGGSTYYADSVKGRFTISRDNAKNTVYLQMNSLKPEDTAVYYCNADSQVIRDYIFDYWGQGTQVTVSS”, the “polyreactivity (PSR sort gate)” value is listed as “low polyreactivity”.
Take “QVQLVESGGGLVQAGGSLRLSCAGSGSTFQRYGMGWYRQAPGKEREFVAAISTSGGITYYADSVKGRFTISRDNAKNTVYLQMNSLKPEDTAVYYCAARTARHVRYWAGWRDYWGQGTQVTVSS”: the “polyreactivity (PSR sort gate)” value was “high polyreactivity”.
As for “QVQLVESGGGLVQAGGSLRLSCAGSGSTLAIYAMGWYRHAPGKERELVAAISGGGSTYADSVKGRFTISRDNAKNTVYLQMISLKPEDTAVYYCNADGWGDRFWSNFRFDYWGQGTQVTVSS”, the “polyreactivity (PSR sort gate)” value is “low polyreactivity”.
Take “QVQLVESGGGLVQAGGSLRLSCAHSASTLQIYAMGWDRQAPGKESELVASISSTTSTNYADSVMGRFTISRDNAKNTVYLQMNSMKPEDTAVYYCARERFGGTDSQVVPWFRFDYDYWGQRTQVTVSS”: the “polyreactivity (PSR sort gate)” value is on record as “low polyreactivity”.
In the case of “QVQLVESGGGLVQAGGSLRLSCAPCGFTFRRNAMGWYRQAPGKERELVAAINWSGGSTYYADSVKGRFTLSRDNAKNNVYLQMNSLKPEDTAVYYCNRRGQYTFWPIHEYWGQGTQVTVSS”, the “polyreactivity (PSR sort gate)” value is “high polyreactivity”.
Regarding “QVQLVESGGGLVQAGGSLRLSCAPSAFTFKYYSMGWYRHTPGKESELVAVISWSGGSTYYADSVKGRFTISRDYAKNTVYLHMNSQKPEDTAVYYCAAYERKFYTVSRWYKLDYWGQGTQVTVSS”, the “polyreactivity (PSR sort gate)” value is listed as “high polyreactivity”.
On to “QVQLVESGGGLVQAGGSLRLSCAPSGCTLGAYAMGWYRQAPGKVRELVADISSRGASTYYEDSVKGRFTISRDHAKNTVYIQMNSLKPEDTAVYDCARAVYIWYGYGYFPEYEYWGQGTQVTVSS”, for which the “polyreactivity (PSR sort gate)” value is “low polyreactivity”.
Next, “QVQLVESGGGLVQAGGSLRLSCAPSGFIFIRYAMGWYRQAPGKERELVASISWRGESTYYADSVKWRFTISRDNAKNTVYLQRNILKPEDTAVYYCAATGINSGPGRMDYWGQGTQVTVSS”: “high polyreactivity”.
“QVQLVESGGGLVQAGGSLRLSCAPSGFIFYTNAMGWYRQAPGKDRELVAAITCIGVSTYYADSVKGRFTISRDYAKNTVYLKMNSLKPEDTEVYYCAADRNFLIFTPDNLTMDYWGQGTQVTVSS”: the “polyreactivity (PSR sort gate)” value is “low polyreactivity”.
Take “QVQLVESGGGLVQAGGSLRLSCAPSGFSFRQYAMGWYRQAPGKERELVAAISSSGGRTYYADSVKGRCTISRDNAKNTVYLQMNSLKPEDSAVYYCNARAWLRGEYGEGYWGQGTQVTVSS”: the “polyreactivity (PSR sort gate)” value is “high polyreactivity”.
For the sequence “QVQLVESGGGLVQAGGSLRLSCAPSGFTFDPYAMGWYRQAPGKERELVAAIDYSGGTTYYADSVKGRFTISRDNAKNTVYLQMNSLKPEDTAVYYCAAEYTYYHWWGYDYWGQGTQVTVSS”, the “polyreactivity (PSR sort gate)” value is on record as “high polyreactivity”.
Under “QVQLVESGGGLVQAGGSLRLSCAPSGFTFLGYDMGWYRQAPGKERELVAAIDYSGGSTYYADSVKGRFTISRDNAKNTVFLQMNSLKPEDTAVYDCAAEYQSGPYTWYEYWGQGTQVTVSS” stands “high polyreactivity”; under “QVQLVESGGGLVQAGGSLRLSCAPSGFTFLYYVMGWYRQAPGKERELVAAINAGGGSTYYAESVKGRFTLSRDNAKNSVYLQMKSLKPADTAVYYCNARVRVRLGRNWSSYYDWGQGTQVTVSS”, “high polyreactivity”.
In the case of “QVQLVESGGGLVQAGGSLRLSCAPSGFTFRIYAMGWYRQAPGKERELVAAISWAGGSTFYADSVKGRFTISRDNAKNTVYLQLNSLKPEDTAVYYCAADTAFNYDYWGQGTQVTVSS”, the “polyreactivity (PSR sort gate)” value was “low polyreactivity”.
Take “QVQLVESGGGLVQAGGSLRLSCAPSGGTFPVYAMGWYRQAPGKERELVAAISYSGVTTYNADSVKGRFTISRDNAKNTVYLQMNSLKPEVTAVYYCNADWRPWYMFSYDYWGQGTQVTVSS”: the “polyreactivity (PSR sort gate)” value was “low polyreactivity”.
For “QVQLVESGGGLVQAGGSLRLSCAPSGIFYKYAMGWYRQAPGKERELVAAISISGTSTYYADSVKGRFTISRDNAKNTVYLQMNSLKPEDTAVYYCAADEFYFAPPVAGENYWGQGTQVTVSS”, the “polyreactivity (PSR sort gate)” value is reported as “low polyreactivity”.
Under “QVQLVESGGGLVQAGGSLRLSCAPSGIIFQFYAMGWYRQAPGKERELVAAISRSGGITHYADSVKGRFTISRDNAKNTVYLQMNSLKPEDTAVYYCAAVRQAYPRLDYWGQGTQVTVSS” stands “high polyreactivity”.
